Key:
Assay in all cases: SPR (Biacore T200); receptor immobilized directly on CM5 chip, antibody as analyte at 4.7 µM
[1] = molecular target: Recombinant Human Fc gamma RIIA/CD32a (R167) Protein (R&D Systems), His-tagged (human) (UniProt P12318)
[2] = molecular target: Recombinant Human Fc gamma RIIIA/CD16a protein (R&D Systems), His-tagged (human) (UniProt P08637)
[3] = molecular target: Recombinant Human Fc gamma RIIIB/CD16b Protein (R&D Systems), His-tagged (human) (UniProt O75015)
[4] = molecular target: Recombinant Human Fc gamma RIIB/C (CD32b/c) Protein (R&D Systems), His-tagged (human) (UniProt P31994)
Chain of Recombinant Human Fc gamma RIIB/C (CD32b/c) Protein (R&D Systems), His-tagged (human) (P31994 other isoform, or with tags, fused parts or gaps): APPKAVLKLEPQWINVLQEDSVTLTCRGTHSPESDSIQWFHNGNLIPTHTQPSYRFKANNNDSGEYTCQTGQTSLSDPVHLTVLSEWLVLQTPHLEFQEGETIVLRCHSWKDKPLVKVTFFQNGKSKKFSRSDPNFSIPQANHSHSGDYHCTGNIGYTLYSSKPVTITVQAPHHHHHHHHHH

Chain of Recombinant Human Fc gamma RIIA/CD32a (R167) Protein (R&D Systems), His-tagged (human) (P12318 other isoform, or with tags, fused parts or gaps): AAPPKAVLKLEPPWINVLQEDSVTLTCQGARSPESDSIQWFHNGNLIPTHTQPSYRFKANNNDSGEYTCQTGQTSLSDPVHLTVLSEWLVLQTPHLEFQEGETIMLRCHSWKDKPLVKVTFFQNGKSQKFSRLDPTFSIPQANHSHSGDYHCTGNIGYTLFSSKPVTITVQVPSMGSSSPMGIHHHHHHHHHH
Chain of Recombinant Human Fc gamma RIIIA/CD16a protein (R&D Systems), His-tagged (human) (P08637 other isoform, or with tags, fused parts or gaps): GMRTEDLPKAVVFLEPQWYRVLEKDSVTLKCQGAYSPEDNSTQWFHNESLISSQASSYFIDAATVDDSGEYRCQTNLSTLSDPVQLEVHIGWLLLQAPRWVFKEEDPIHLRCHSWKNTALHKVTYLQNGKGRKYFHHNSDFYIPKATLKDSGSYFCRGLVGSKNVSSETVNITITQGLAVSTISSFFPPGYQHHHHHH
Chain of Recombinant Human Fc gamma RIIIB/CD16b Protein (R&D Systems), His-tagged (human) (O75015 other isoform, or with tags, fused parts or gaps): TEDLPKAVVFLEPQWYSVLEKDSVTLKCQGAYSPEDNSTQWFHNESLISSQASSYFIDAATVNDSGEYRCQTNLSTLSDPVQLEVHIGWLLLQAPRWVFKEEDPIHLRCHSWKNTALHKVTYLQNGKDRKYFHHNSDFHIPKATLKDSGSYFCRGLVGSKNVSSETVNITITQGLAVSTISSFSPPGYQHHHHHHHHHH

binding response (RU) [1] [RU]	binding response (RU) [2] [RU]	binding response (RU) [3] [RU]	binding response (RU) [4] [RU]	Substance
64	100	4.5	18	LALA variant of the anti-CD70 antibody vorsetuzumab (IgG1)
8.3	–	–	–	LALA-DG variant of the anti-CD70 antibody vorsetuzumab (IgG1)

— patent US20240239915A1
